Experimental data: the supplement of paper PMC10567573
± gives the standard deviation.

Experiment: protein stability index of a GFP-peptide fusion (GPS, HEK-293T) (PSI 1-6); higher = more stable
[1] = treatment: DMSO, c terminus: a fixed tail appended
[2] = treatment: MLN4924 1 uM, 8 h, c terminus: a fixed tail appended
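Further: 24-mer peptide tiles fused after GFP, lentivirally expressed, FACS-sorted into six equal bins by GFP/DsRed ratio, decoded by Illumina sequencing, PSI is the read-weighted mean bin number.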

Q: With CQPRNLDKERAVLLQRRKRENMSD [KMT2E] as the sequence, how does the protein stability index [1] read?
A: 4.32 ± 0.13

Q: And the protein stability index [2]?
A: 4.29 ± 0.12

Q: Which protein stability index [1] does the source give for MTMIVSLAAVAWVGQQVHNLLLTY [ARL6IP1] here?
A: 3.31 ± 0.37

Q: And the protein stability index [2]?
A: 3.25 ± 0.32

Q: What does the source list for VFFLFPHSVLVDDDGIKVVKVTFN [TMEM106C]?
A: protein stability index [1]: 2.76 ± 0.45; protein stability index [2]: 2.65 ± 0.74

Q: Which protein stability index [1] does the source give for DSDFRELHTAREFSEEDEEETTSQ [RTN2] here?
A: 5.64 ± 0.17

Q: And the protein stability index [2]?
A: 5.5 ± 0.17

Q: With PGAFGTILTFLRAGKLRLLREMCA [KCNG1] as the sequence, how does the protein stability index [1] read?
A: 2.84 ± 0.33

Q: What about the protein stability index [2] of the same sequence?
A: 2.8 ± 0.062

Q: For AENSPYLNPQLVQPAKKPLLWSDP [ESRRG], which protein stability index [1] is on record?
A: 3.9 ± 0.25

Q: What about the protein stability index [2] of the same sequence?
A: 3.81 ± 0.23

Q: For QNMMNHCNLWDSHHPEVPQRILRI [HDAC6], which protein stability index [1] is on record?
A: 2.2 ± 0.24

Q: And the protein stability index [2]?
A: 2.15 ± 0.083

Q: For HRRDGKWQIVHFHRSGAPSVLPH [CAMK2A], which protein stability index (treatment: DMSO, c terminus: native) is on record?
A: 3.2 ± 0.21

Q: What about the protein stability index (treatment: MLN4924 1 uM, 8 h, c terminus: native) of the same sequence?
A: 3.34 ± 0.24

Q: With EEIKKLTTDPDLILEVLRSSPMVQ [LARP4] as the sequence, how does the protein stability index [1] read?
A: 2.39 ± 0.7

Q: And the protein stability index [2]?
A: 2.64 ± 0.64

Q: For SSSSSSSSCYPLIPSTPEEVSADD [MAGEA10], which protein stability index [1] is on record?
A: 5.46 ± 0.33

Q: And the protein stability index [2]?
A: 5.5 ± 0.14

Q: Which protein stability index [1] does the source give for ETHRAPDLVQWTRHMEAVKAQLLE [SOAT2] here?
A: 4.81 ± 0.21

Q: What about the protein stability index [2] of the same sequence?
A: 4.53 ± 0.29

Q: Which results are given for KERQKKDNHNLIERRRRFNINDRI [TFE3]?
A: protein stability index [1]: 3.95 ± 0.36; protein stability index [2]: 4.08 ± 0.14

Q: For NPNGGSFEEVLSSTAHASAQSLAG [TPD52L1], which protein stability index [1] is on record?
A: 4.76 ± 0.12

Q: And the protein stability index [2]?
A: 4.9 ± 0.11

Q: With EPAGGGRSREARSRLLLLEQELKT [SMAD6] as the sequence, how does the protein stability index [1] read?
A: 4.63 ± 0.44

Q: And the protein stability index [2]?
A: 4.87 ± 0.088

Q: With DYNPPRVQLSDEMFVFQDGRWVNE [CBY2] as the sequence, how does the protein stability index [1] read?
A: 4.48 ± 0.23

Q: What about the protein stability index [2] of the same sequence?
A: 4.37 ± 0.36

Q: Which protein stability index [1] does the source give for HRLMTDARRRVCHTEDFQKEEGTV [CPXM2] here?
A: 4.76 ± 0.26

Q: And the protein stability index [2]?
A: 4.8 ± 0.24

Q: What does the source list for ENPETDLHVNPKKQTIGNSCKACG [EIF5]?
A: protein stability index [1]: 4.44 ± 0.39; protein stability index [2]: 4.66 ± 1.2

Q: For QSYKDLCERHEKGVLHKHQRALHK [SNX8], which protein stability index [1] is on record?
A: 3.95 ± 0.2

Q: What about the protein stability index [2] of the same sequence?
A: 3.92 ± 0.37

Q: What does the source list for KLWDLRTTKCVRQYEGHVNEYAYL [DCAF4]?
A: protein stability index [1]: 2.38 ± 0.21; protein stability index [2]: 2.27 ± 0.22

Q: What does the source list for DQDDRRTWDGRPLTMAATFDDCLY [GFOD1]?
A: protein stability index [1]: 3.74 ± 0.34; protein stability index [2]: 3.99 ± 0.22

Q: For FQTLQAIVSHFQKLFDVPSLNGVY [CEP70], which protein stability index [1] is on record?
A: 2.36 ± 0.36

Q: And the protein stability index [2]?
A: 2.36 ± 0.4

Q: For GFRYSERYDPEPKSKWDEEWDKNK [CLINT1], which protein stability index [1] is on record?
A: 3.73 ± 0.24

Q: And the protein stability index [2]?
A: 3.78 ± 0.29

Q: With AEGPNRLLYKDGFSTILHLLLGSP [LPCAT4] as the sequence, how does the protein stability index [1] read?
A: 2.23 ± 0.98

Q: What about the protein stability index [2] of the same sequence?
A: 2.08 ± 0.29

Q: For KATNVVMNYSEIESKVREATNDDP [CLINT1], which protein stability index [1] is on record?
A: 5.35 ± 0.27

Q: What about the protein stability index [2] of the same sequence?
A: 5.34 ± 0.15

Q: Which results are given for YKVSAASSFFFSGVFVGVISFGQL [SLC22A15]?
A: protein stability index [1]: 3.24 ± 0.1; protein stability index [2]: 3.25 ± 1.5

Q: What does the source list for CEYETRLPGNHSTSQEIFRQRFRH [ZNF232]?
A: protein stability index [1]: 3.48 ± 0.25; protein stability index [2]: 3.4 ± 0.17

Q: Which protein stability index [1] does the source give for EIIELRRTVNALEIELQAQHNLRY [KRT33B] here?
A: 2.21 ± 0.22

Q: What about the protein stability index [2] of the same sequence?
A: 2.08 ± 0.14

Q: Which results are given for QASPYHPGSCGAGAPSPGSSDVST [ELF3]?
A: protein stability index [1]: 4.57 ± 0.16; protein stability index [2]: 4.52 ± 0.43

Q: With ELIRVEVEILDLNDNSPSFATPER [PCDHGC5] as the sequence, how does the protein stability index [1] read?
A: 2.42 ± 0.26

Q: What about the protein stability index [2] of the same sequence?
A: 2.43 ± 0.25

Q: What does the source list for PAVATLCDLFDREIVVTISWAKSI [ESRRA]?
A: protein stability index [1]: 2.65 ± 0.56; protein stability index [2]: 3.36 ± 0.85

Q: For GVIATKQFSRGDFVVEYHGDLIEI [KMT5A], which protein stability index [1] is on record?
A: 2.37 ± 0.31

Q: What about the protein stability index [2] of the same sequence?
A: 1.68 ± 0.17

Q: Which results are given for GIHLALVELLKNLTKYPTDRDSIW [INTS4]?
A: protein stability index [1]: 2.77 ± 0.72; protein stability index [2]: 2.75 ± 1

Q: For DYSPYFKTIEDLRNKIIAATIENA [KRT16], which protein stability index [1] is on record?
A: 2.33 ± 0.22

Q: What about the protein stability index [2] of the same sequence?
A: 2.44 ± 0.42

Q: What does the source list for VQKSIYSEFLKRFVEATRKWKVGI [ALDH8A1]?
A: protein stability index [1]: 2.75 ± 0.91; protein stability index [2]: 2.83 ± 0.54

Q: For KKTGKSSTTALGDKQRKANESKGT [ELOA2], which protein stability index [1] is on record?
A: 5.26 ± 0.36

Q: What about the protein stability index [2] of the same sequence?
A: 5.22 ± 0.17

Q: Which protein stability index [1] does the source give for MWVRFRAFEAARDLDACALVRGHR [ZSWIM9] here?
A: 2.17 ± 0.25

Q: And the protein stability index [2]?
A: 2.06 ± 0.22

Q: With EENIMKSNIDKKFSAHYDAVEAEL [FAM50A] as the sequence, how does the protein stability index [1] read?
A: 4.98 ± 0.19

Q: And the protein stability index [2]?
A: 5.08 ± 0.083

Q: Which results are given for NSSPRVMQRKQSLGKPDQKDLNEN [DLC1]?
A: protein stability index [1]: 5.09 ± 0.18; protein stability index [2]: 4.88 ± 0.28

Q: With VATNSAGTRYSAPANLYVRELREV [PTPRD] as the sequence, how does the protein stability index [1] read?
A: 3.05 ± 0.32

Q: What about the protein stability index [2] of the same sequence?
A: 3.45 ± 0.37

Q: Which protein stability index [1] does the source give for PLMGETQERERVLTHFSRRYCQCN [PSD2] here?
A: 3.13 ± 0.38

Q: What about the protein stability index [2] of the same sequence?
A: 3.62 ± 0.25

Q: Which protein stability index [1] does the source give for LTPSSKEMMSQALKATFSGFTKEQ [ETS1] here?
A: 3.87 ± 0.24

Q: And the protein stability index [2]?
A: 3.74 ± 0.19

Q: What does the source list for DAPVPDCLGVHCDFHQGLLSFYNA [FSD1]?
A: protein stability index [1]: 2.41 ± 0.094; protein stability index [2]: 2.52 ± 0.26

Q: For SFCLEDTECEGDIQKNYECANFGD [LOXL2], which protein stability index [1] is on record?
A: 5.14 ± 0.14

Q: And the protein stability index [2]?
A: 5.33 ± 0.2

Q: Which protein stability index [1] does the source give for LSVGQYNCPGQYTFSMPSDSHVSS [CD69] here?
A: 3.05 ± 0.28

Q: What about the protein stability index [2] of the same sequence?
A: 3.07 ± 0.27

Q: For ATPRQVPSLQHLCRMSIRRVMPTQ [WSB1], which protein stability index [1] is on record?
A: 3.83 ± 0.23

Q: And the protein stability index [2]?
A: 3.77 ± 0.15
